Publication PMC3876286 (ACS chemical biology, 2013)

System: r(CUG)12
Experiment: SPR binding to r

koff (1): 0.00203 s⁻¹ | kon (1): 3280 M⁻¹ s⁻¹
B1: muscleblind-like 1 protein (protein, UniProt Q9NR56 1-388, looked up)
Muscleblind-like protein 1: MAVSVTPIRDTKWLTLEVCREFQRGTCSRPDTECKFAHPSKSCQVENGRVIACFDSLKGRCSRENCKYLHPPPHLKTQLEINGRNNLIQQKNMAMLAQQMQLANAMMPGAPLQPVPMFSVAPSLATNASAAAFNPYLGPVSPSLVPAEILPTAPMLVTGNPGVPVPAAAAAAAQKLMRTDRLEVCREYQRGNCNRGENDCRFAHPADSTMIDTNDNTVTVCMDYIKGRCSREKCKYFHPPAHLQAKIKAAQYQVNQAAAAQAAATAAAMTQSAVKSLKRPLEATFDLGIPQAVLPPLPKRPALEKTNGATAVFNTGIFQYQQALANMQLQQHTAFLPPVPMVHGATPATVSAATTSATSVPFAATATANQIPIISAEHLTSHKYVTQM
Kd (read-out: Kobs (1)): 619 nM
